One block for each binder: values may come before it.
Key:
[1] = molecular target: T1, sIGF-1R(1-903) (human, UniProt P08069 31-933); assay: ITC, 25 °C; footnote a: affinity too high for accurate measurement
T1 construct: also called soluble IGF-1R ectodomain
Method: (§1) Isothermal Titration Calorimetry (ITC). […] The reagents were co-dialyzed against PBS, pH 7.2. The protein solutions were adjusted to the concentrations listed above by dilution using PBS dialysate. […] The protein solutions were prepared as described above for the MAb binding experiments. All ITC experiments were performed on an ITC₂₀₀ microcalorimeter (MicroCal, LLC) at 25° C. […] IGF-1R bispecific antibodies. A four minute equilibration period was used between all injections with an initial delay of 60 seconds. Numerical integration of the data was performed using the ITC data analysis software supplied by MicroCal (Origin). ΔHA° (T) values were calculated based on the difference between the average heat liberated/absorbed during the binding phase of the injections and the average heat of dilution found once the receptor, IGF-1R, was saturated with MAb or BsAb.

[2] = molecular target: T1, sIGF-1R(1-903); assay: ITC series titration, G11 MAb into sIGF-1R(1-903) holding excess C06 MAb
Method: The protein solutions were prepared as described above for the MAb binding experiments. All ITC experiments were performed on an ITC₂₀₀ microcalorimeter (MicroCal, LLC) at 25° C. […] IGF-1R bispecific antibodies. A four minute equilibration period was used between all injections with an initial delay of 60 seconds. Numerical integration of the data was performed using the ITC data analysis software supplied by MicroCal (Origin). ΔHA° (T) values were calculated based on the difference between the average heat liberated/absorbed during the binding phase of the injections and the average heat of dilution found once the receptor, IGF-1R, was saturated with MAb or BsAb.
Both the dimeric receptor and the bivalent MAbs contain two potential binding sites.

[3] = molecular target: T2, human IGF-1R(1-903)-Fc (human, UniProt P08069 31-933); assay: IGF-2 blocking ELISA: antibody titrated in 640 nM IGF-2 His on biotinylated hIGF-1R-Fc on streptavidin plates, bound ligand detected with anti-His-HRP
T2 construct: also called hIGF-1R-Fc; SDWT; not shown: human IgG1 Fc, C-terminal tag

[4] = molecular target: T3, human IGF-1R on H322M non-small cell lung cancer cells (human, UniProt P08069 31-1367); assay: flow cytometry on H322M cells, anti-human Fc PE secondary (FIG. 55B)
T3 construct: Endogenous receptor of the tumor cell line; also called cell surface IGF-1R
Method: (§2) Cell lines were routinely cultured no greater than 20 passages. Flow cyotometric analysis of antibody binding to human cancer cells. Cells were lifted with cell dissociation buffer (Gibco catalog #13151-014), counted, washed and adjusted to 5×10⁶ cells/ml. Cells (2.5×10⁵; 50 uL) were added to each well of a 96-well round bottom plate (Costar #3799). Purified antibodies were tested at a starting concentration of 300 nM with serial half-log dilutions in FACS buffer. FACS buffer used throughout the assay was PBS (without Ca++/Mg++) containing 5% FBS. Samples were incubated on ice for 30 minutes, washed 3× with 200 uL FACS buffer and centrifuged at 1200 rpm for 3 minutes at 4° C. C2B8 (rituximab, IgG1) was used as a negative control. […] Samples were incubated for an additional 30 minutes on ice, shielded from light. Cells were washed as described above and resuspended in 100 μl FACS buffer containing propidium iodide (PI) for dead cell exclusion (BD Pharmingen, catalog# 51-66211E or 556463; use at 1:500 final in FACS buffer). Samples were run in triplicate using the FACSArray flow cytometer (Becton Dickinson) with 5000 live events collected per sample. Data analysis was performed using the GraphPad Prism version 5.0 software (GraphPad Software Inc., 11452 El Camino Real #215, San Diego, Calif. 92130). Results. […]

[5] = molecular target: T1, sIGF-1R(1-903); assay: equilibrium solution-phase SPR, free sIGF-1R(1-903) read on G11 surface
[6] = molecular target: T3, human IGF-1R on H322M non-small cell …; assay: flow cytometry on H322M cells, anti-human Fab PE secondary (FIG. 55A)
Method: as §2

[7] = molecular target: T3, human IGF-1R on H322M non-small cell …; assay: flow cytometry on H322M cells
Method: as §2

[8] = molecular target: T1, sIGF-1R(1-903); assay: ITC, 25 °C, antibody into sIGF-1R(1-903)
Method: as §1

[9] = molecular target: T2, human IGF-1R(1-903)-Fc; assay: ELISA, blocking of 320 nM IGF-1 His on biotinylated hIGF-1R-Fc
Method: hIGF-1R-Fc was biotinylated using EZ-Link Sulfo-NHS-LC-Biotin according to the protocol provided by the manufacturer (Pierce Cat. No. 21335). Biotinylated human IGF-1R Fc (NB12453-9) at 5 μg/ml was added to the wells of SigmaScreen streptavidin-coated 96-well plates (Sigma, Cat. No. M5432-5EA) at 100 μL/well and incubated overnight at 2-8° C. The plates were then washed four times with 200 μL/well PBST. […] The dilutions were added to the plates in duplicate at 100 μL/well and the plates were incubated at RT for 1 hour. The plates were then washed four times with 200 μL/well PBST. An HRP-conjugated anti-Histag antibody (Penta-His HRP Conjugate, QIAGEN, Cat. No. 1014992) was diluted 1:1000 in PBST and added to plates at 100 μL/well, and the plates were incubated at RT for one hour. The plates were then washed four times with 200 μL/well PBST. SureBlue Reserve TMB Microwell Peroxidase Substrate (KPL, Cat. No. 53-00-01) was added to plates at 100 μL/well followed by 1% phosphoric acid at 100 μL/well once the desired reaction was observed. The absorbance of each well was determined at 450 nm, and the results were normalized and plotted against the log of antibody concentration.

[10] = molecular target: T4, human IGF-1R(1-902)-His10 (human, UniProt P08069 31-932); assay: SPR competition (Biacore 3000): soluble antibody titrated into 40 nM hIGF-1R-His, mixture injected over immobilized M14-G11
T4 construct: Bought from R&D Systems (305-GR-050); also called hIGF-1R-His10; hIGF-1R-His
Method: Regeneration was achieved by three 10 μL injections of 0.1 M glycine, pH 2.0. 100% hIGF-1R-His binding to each antibody was determined by the signal above the baseline under mass transport-limiting conditions 60 seconds into the injection.

[11] = molecular target: T3, human IGF-1R on H322M non-small cell …; assay: cell-based or functional assay
[12] = molecular target: T2, human IGF-1R(1-903)-Fc; assay: IGF-1 blocking ELISA at 20 nM IGF-1 His on biotinylated hIGF-1R-Fc
Method: (§3) The dilutions were added to the plates in duplicate at 100 μL/well and the plates were incubated at RT for 1 hour. The plates were then washed four times with 200 μL/well PBST. An HRP-conjugated anti-Histag antibody (Penta-His HRP Conjugate, QIAGEN, Cat. No. 1014992) was diluted 1:1000 in PBST and added to plates at 100 μL/well, and the plates were incubated at RT for one hour. The plates were then washed four times with 200 μL/well PBST. SureBlue Reserve TMB Microwell Peroxidase Substrate (KPL, Cat. No. 53-00-01) was added to plates at 100 μL/well followed by 1% phosphoric acid at 100 μL/well once the desired reaction was observed. The absorbance of each well was determined at 450 nm, and the results were normalized and plotted against the log of antibody concentration.
(§4) Ligand Blocking Properties.

[13] = molecular target: T2, human IGF-1R(1-903)-Fc; assay: ELISA, blocking of IGF-2 His (640 nM by the table head) on biotinylated hIGF-1R-Fc
[14] = molecular target: T2, human IGF-1R(1-903)-Fc; assay: IGF-1 blocking ELISA: antibody titrated in 320 nM IGF-1 His on biotinylated hIGF-1R-Fc on streptavidin plates, bound ligand detected with anti-His-HRP
Method: as §3, §4

[15] = molecular target: T5, hIGF-1R-Fc mutant SD012 (E303G) (human, UniProt P08069 31-933); assay: SPR, Fab over captured mutant hIGF-1R-Fc
T5 construct: not shown: human IgG1 Fc, C-terminal tag
Method: (§5) Surface plasmon resonance (SPR) experiments were performed on a Biacore 3000 instrument set to 25° C. […] The antibody sensorchip surfaces were prepared by injecting each antibody (diluted 100 μg/mL in 10 mM Acetate, pH 4.0) over EDC/NHS-activated sensorchip surfaces according to the standard protocol of the manufacturer. […] Both hIGF-1R-Fc and mIGF-1R-Fc proteins oligomerize due to the incorporation of two separate homodimeric regions (IGF-1R and IgG1-Fc). […] After, completion of the receptor-Fc loading step, flow rates were elevated to 5 μl/min. […] Dissociation was measured for 7 minutes after the antibody injections were complete. Finally, the flow rate was elevated to 30 μL/min and the chip surfaces were regenerated by 2×10 μL injections of 0.1 M glycine, pH 2.

[16] = molecular target: T6, hIGF-1R-Fc mutant SD008 (S257F) (human, UniProt P08069 31-933); assay: SPR, Fab over captured mutant hIGF-1R-Fc
T6 construct: not shown: human IgG1 Fc, C-terminal tag
Method: as §5

[17] = molecular target: T7, hIGF-1R-Fc mutant SD201 (D248A) (human, UniProt P08069 31-933); assay: SPR, Fab over captured mutant
T7 construct: not shown: human IgG1 Fc, C-terminal tag
Method: as §5

[18] = molecular target: T8, hIGF-1R-Fc mutant SD202 (D250S) (human, UniProt P08069 31-933); assay: SPR, Fab over captured mutant
T8 construct: not shown: human IgG1 Fc, C-terminal tag
Method: as §5

[19] = molecular target: T9, hIGF-1R-Fc mutant SD203 (N254A) (human, UniProt P08069 31-933); assay: SPR, antibody over captured mutant
T9 construct: not shown: human IgG1 Fc, C-terminal tag
Method: as §5

[20] = molecular target: T10, hIGF-1R-Fc mutant SD207 (G265Y) (human, UniProt P08069 31-933); assay: SPR, antibody over captured mutant
T10 construct: not shown: human IgG1 Fc, C-terminal tag
Method: as §5

T1 sequence (P08069 31-933): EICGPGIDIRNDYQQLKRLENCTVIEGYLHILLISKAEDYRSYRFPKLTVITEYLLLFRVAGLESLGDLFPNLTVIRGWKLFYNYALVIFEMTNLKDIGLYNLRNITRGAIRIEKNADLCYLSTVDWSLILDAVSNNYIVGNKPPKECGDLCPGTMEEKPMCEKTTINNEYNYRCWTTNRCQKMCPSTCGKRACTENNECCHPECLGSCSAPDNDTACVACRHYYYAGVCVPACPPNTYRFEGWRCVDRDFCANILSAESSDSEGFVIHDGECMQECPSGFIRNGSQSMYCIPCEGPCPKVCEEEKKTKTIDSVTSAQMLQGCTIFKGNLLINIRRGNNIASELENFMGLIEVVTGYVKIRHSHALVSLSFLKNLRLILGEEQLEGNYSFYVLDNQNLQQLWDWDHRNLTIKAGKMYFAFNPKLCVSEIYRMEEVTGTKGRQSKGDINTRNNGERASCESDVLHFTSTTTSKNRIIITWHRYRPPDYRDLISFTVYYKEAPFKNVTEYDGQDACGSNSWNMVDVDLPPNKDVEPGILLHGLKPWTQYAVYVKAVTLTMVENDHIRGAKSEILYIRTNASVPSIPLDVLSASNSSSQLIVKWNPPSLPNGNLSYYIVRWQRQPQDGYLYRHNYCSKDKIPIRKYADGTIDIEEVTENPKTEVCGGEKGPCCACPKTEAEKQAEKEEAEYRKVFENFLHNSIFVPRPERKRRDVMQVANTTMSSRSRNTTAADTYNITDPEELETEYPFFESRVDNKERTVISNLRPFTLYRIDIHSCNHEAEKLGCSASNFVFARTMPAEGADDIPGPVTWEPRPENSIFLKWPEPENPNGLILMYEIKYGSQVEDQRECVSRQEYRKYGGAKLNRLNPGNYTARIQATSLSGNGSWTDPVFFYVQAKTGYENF
T2 sequence (P08069 31-933): as above
T3 sequence (P08069 31-1367, stated change not applied): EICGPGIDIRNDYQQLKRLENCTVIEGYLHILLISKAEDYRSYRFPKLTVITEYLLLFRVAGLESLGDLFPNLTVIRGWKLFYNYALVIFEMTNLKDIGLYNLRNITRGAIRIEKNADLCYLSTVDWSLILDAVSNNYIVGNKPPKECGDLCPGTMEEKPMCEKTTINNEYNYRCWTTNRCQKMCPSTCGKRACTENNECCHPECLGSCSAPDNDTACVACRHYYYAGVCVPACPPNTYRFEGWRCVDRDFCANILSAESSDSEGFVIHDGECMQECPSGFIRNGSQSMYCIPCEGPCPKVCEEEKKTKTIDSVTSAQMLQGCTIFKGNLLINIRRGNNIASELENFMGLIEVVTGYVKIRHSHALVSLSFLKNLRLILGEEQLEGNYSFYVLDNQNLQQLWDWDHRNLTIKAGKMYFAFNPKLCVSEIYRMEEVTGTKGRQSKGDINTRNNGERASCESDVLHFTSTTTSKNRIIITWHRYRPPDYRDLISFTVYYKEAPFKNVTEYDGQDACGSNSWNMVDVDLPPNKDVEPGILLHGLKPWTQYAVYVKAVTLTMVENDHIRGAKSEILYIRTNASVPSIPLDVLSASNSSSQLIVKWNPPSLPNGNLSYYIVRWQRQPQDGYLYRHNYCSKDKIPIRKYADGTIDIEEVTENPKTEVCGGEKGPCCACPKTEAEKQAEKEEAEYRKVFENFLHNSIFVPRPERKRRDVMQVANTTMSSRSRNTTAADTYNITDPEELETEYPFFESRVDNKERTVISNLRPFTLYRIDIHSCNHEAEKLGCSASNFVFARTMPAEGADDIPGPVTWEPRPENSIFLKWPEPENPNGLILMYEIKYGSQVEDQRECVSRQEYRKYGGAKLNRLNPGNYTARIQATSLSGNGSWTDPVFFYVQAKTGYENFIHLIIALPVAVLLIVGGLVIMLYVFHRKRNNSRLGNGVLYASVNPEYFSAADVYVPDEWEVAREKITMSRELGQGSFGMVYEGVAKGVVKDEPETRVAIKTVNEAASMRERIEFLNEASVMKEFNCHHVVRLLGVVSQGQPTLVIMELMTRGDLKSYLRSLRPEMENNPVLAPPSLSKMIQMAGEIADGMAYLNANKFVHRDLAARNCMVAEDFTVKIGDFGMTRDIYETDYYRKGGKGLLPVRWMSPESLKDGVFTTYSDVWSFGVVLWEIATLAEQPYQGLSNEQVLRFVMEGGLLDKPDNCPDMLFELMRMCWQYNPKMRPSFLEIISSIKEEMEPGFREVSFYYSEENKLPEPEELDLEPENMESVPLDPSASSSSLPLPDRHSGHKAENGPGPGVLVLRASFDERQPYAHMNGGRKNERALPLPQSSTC
T5 sequence (P08069 31-933 E333G): as the sequence (P08069 31-933) above, with E303G counted along it
T4 sequence (P08069 other isoform, or with tags, fused parts or gaps): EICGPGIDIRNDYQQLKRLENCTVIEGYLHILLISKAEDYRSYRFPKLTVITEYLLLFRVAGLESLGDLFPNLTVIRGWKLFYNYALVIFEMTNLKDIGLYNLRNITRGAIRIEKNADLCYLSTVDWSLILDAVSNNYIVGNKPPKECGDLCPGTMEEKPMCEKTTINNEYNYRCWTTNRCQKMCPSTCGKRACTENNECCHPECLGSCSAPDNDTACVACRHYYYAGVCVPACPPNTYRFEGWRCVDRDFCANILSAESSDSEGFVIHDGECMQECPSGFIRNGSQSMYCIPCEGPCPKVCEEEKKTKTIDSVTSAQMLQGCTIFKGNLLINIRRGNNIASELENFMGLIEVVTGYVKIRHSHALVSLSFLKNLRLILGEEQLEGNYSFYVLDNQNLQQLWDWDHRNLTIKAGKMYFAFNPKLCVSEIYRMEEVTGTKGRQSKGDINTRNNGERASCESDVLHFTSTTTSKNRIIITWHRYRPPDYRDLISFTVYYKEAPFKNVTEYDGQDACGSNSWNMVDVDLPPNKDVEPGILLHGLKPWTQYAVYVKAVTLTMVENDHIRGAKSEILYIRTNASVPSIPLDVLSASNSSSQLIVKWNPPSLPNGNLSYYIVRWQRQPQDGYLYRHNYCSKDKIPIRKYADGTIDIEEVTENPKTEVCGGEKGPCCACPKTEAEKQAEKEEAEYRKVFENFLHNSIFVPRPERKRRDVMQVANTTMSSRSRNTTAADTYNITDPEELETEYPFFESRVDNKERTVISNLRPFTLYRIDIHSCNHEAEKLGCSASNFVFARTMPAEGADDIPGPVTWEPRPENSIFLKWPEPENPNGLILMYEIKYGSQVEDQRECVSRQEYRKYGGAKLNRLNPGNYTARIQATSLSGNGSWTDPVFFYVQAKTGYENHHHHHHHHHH
T9 sequence (P08069 31-933 N284A): as the sequence (P08069 31-933) above, with N254A counted along it
T7 sequence (P08069 31-933 D278A): as the sequence (P08069 31-933) above, with D248A counted along it
T8 sequence (P08069 31-933 D280S): as the sequence (P08069 31-933) above, with D250S counted along it
T6 sequence (P08069 31-933 S287F): as the sequence (P08069 31-933) above, with S257F counted along it
T10 sequence (P08069 31-933 G295Y): as the sequence (P08069 31-933) above, with G265Y counted along it

-TΔS [1]: 14.8 kcal/mol
Kd [1]: 6 nM
ΔG [1]: -11.2 kcal/mol
ΔH° [2]: -16.2 kcal/mol
IC50 (read off the curve) [3]: ~2 nM
EC50 [4]: 0.72 nM
Kd [5]: 0.1 nM
n (#G11 specific binding sites) [5]: 1.1
EC50 [6]: 0.44 nM
EC50 [7]: < 1 nM
ΔH° [8]: -26.6 kcal/mol
IC50 [9]: 13 nM
IC50 (read off the curve) [10]: ~20 nM
reduction of surface IGF-1R after 24 hours (FACS, H322M cells) [11]: > 70%
IC50 (read off the curve) [12]: ~2 nM
IC50 [13]: 7.9 nM
B1: M14-G11 antibody (antibody, V domains shown)
VH: EVQLLESGGGLVQPGGSLRLSCAASGFTFSNYPMYWVRQAPGKGLEWVSRISSSGGRTVYADSVKGRFTISRDNSKNTLYLQMNSLRAEDTAVYYCARDRWSRSAAEYGLGGYWGQGTLVTVSS
VL: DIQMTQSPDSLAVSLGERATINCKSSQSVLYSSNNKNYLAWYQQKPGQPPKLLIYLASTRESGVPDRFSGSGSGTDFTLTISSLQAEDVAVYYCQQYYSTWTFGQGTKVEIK
notes: Fully human full-length antibody; also called M14.G11.G4.P.agly; G11.G4P.agly

Kd [5]: 4 nM
n (#G11 specific binding sites) [5]: 1.7
IC50 (read off the curve) [14]: ~6 nM
fold loss in affinity (KD) against wild type [15]: ~3 fold
fold loss in affinity (KD) against wild type [16]: ~3 fold
binding result [17]: no binding (tested: up to 30 nM Fab)
binding result [18]: no binding (tested: up to 30 nM Fab)
B2: M14-G11 Fab (Fab, V domains shown)
VH: EVQLLESGGGLVQPGGSLRLSCAASGFTFSNYPMYWVRQAPGKGLEWVSRISSSGGRTVYADSVKGRFTISRDNSKNTLYLQMNSLRAEDTAVYYCARDRWSRSAAEYGLGGYWGQGTLVTVSS
VL: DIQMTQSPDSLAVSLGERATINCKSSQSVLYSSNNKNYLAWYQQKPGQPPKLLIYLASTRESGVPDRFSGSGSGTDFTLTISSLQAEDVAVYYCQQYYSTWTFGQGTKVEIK
notes: Enzymatically derived Fab

B3: P1E2 chimeric antibody (antibody, V domains shown)
VH: QVQLQQPGAELVKPGASVKLSCKASGYTFTSYWMHWVKQRPGQGLEWIGEINPTYGRSNYNEKFKSKATLTVDKSSSTAYMQLSSLTSEDSAVYYCARLVRLRYFDVWGAGTTVTVSS
VL: DIVMTQAAFSNPVTLGTSASISCRSSKSLLHSNGITYLYWYLQKPGQSPQLLIYQMSNLASGVPDRFSSSGSGTDFTLRISRVEAEDVGVYYCAQNLELPYTFGGGTKLEIK
notes: also called DE12 Chimera; P1E2.3B12 variable domains
binding result [19]: no binding (tested: up to 30 nM antibody)
binding result [20]: no binding (tested: up to 30 nM antibody)

From patent US20090130105A1 (Biogen, published 2009)
